Data published in patent US20210332360.

Assays:
Assay in all cases: flow
[1] = molecular target: T1, Pisum sativum agglutinin (PSA) (Pisum sativum) (UniProt P02867+P02867); details: counter-target
T1 sequence 1: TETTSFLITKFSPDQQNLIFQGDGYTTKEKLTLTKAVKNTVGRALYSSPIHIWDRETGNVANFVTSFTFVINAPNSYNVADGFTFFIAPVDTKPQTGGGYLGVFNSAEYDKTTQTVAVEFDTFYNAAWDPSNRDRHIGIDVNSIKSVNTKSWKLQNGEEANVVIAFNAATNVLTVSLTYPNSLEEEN
T1 sequence 2: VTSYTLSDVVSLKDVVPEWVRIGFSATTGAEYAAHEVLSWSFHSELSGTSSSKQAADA

[2] = molecular target: T2, DC-SIGN (SIGNR1/CD209b) (Mus musculus) (UniProt Q8CJ91); details: after the 5' primer region all dT replaced by 4 (alpha-D-mannose-triazole-modified C8-alkyne-dU); counter-target; 3.5-fold weaker than human
T2 sequence: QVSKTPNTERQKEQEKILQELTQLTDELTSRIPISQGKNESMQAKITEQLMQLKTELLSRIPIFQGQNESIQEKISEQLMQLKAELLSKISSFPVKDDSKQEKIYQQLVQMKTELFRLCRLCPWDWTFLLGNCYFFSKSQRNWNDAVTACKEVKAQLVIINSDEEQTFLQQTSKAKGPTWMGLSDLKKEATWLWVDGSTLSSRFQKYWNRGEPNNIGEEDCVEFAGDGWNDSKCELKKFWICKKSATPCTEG

[3] = molecular target: T3, DC-SIGN (DC-SIGNR/CD299) (Homo sapiens) (UniProt Q9H2X3); details: after the 5' primer region all dT replaced by 4 (alpha-D-mannose-triazole-modified C8-alkyne-dU); particle-displayed; SB with Mg, Ca, Mn
T3 sequence: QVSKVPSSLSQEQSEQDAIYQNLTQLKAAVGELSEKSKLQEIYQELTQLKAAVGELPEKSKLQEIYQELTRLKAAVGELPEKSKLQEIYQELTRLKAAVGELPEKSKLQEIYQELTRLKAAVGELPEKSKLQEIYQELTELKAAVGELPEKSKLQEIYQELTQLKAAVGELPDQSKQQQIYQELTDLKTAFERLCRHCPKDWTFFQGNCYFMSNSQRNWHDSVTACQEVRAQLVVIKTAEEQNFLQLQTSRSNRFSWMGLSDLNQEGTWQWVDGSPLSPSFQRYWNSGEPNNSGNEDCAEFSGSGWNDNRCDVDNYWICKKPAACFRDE

GATCCCAGTCCGAAGTAATCGTTGCATCTGCACGACTGGTGAGCTTGAGTGGCAGAAGAACTTGTGCAAACGGCTATAGG [3-1]
Kd ([1]; after the 5' primer region (GATCCCAGTCCGAAGTAATC, natural) all dT replaced by 4 (alpha-D-mannose-triazole-modified C8-alkyne-dU) and all dC by 2 (5-formyl-dC)): > 1000 nM

GATCCCAGTCCGAAGTAATCGTTGCATCTGCACGACTGGTGAGCTTGAGTGGCAGAAGAACTTGTGCAAACGGCTATAGG [3-1m]
Kd ([1]; after the 5' primer region all dT replaced by 4 (alpha-D-mannose-triazole-modified C8-alkyne-dU), natural dC): > 1000 nM

GATCCCAGTCCGAAGTAATCCAAGGGTAATTGGGAAATAAGGATGGGGTAATATGCAACCCTTGTGCAAACGGCTATAGG [D1]
Kd [2]: 12.5 nM | Kd [3]: 3.6 nM
